Experimental data published in article PMC2902799.

Assays:
Experiment in all cases: cross-linking
[1] = molecular target: CheA A37C (single-cysteine mutant of cysteine-less CheA) (Salmonella typhimurium) (UniProt P09384)
[2] = molecular target: CheA A114C (single-cysteine mutant of cysteine-less CheA) (Salmonella typhimurium) (UniProt P09384)
[3] = molecular target: CheA E109C (single-cysteine mutant of cysteine-less CheA) (Salmonella typhimurium) (UniProt P09384)
[4] = molecular target: CheA E311C (single-cysteine mutant of cysteine-less CheA) (Salmonella typhimurium) (UniProt P09384)
[5] = molecular target: CheA G636C (single-cysteine mutant of cysteine-less CheA) (Salmonella typhimurium) (UniProt P09384)
[6] = molecular target: CheA L627C (single-cysteine mutant of cysteine-less CheA) (Salmonella typhimurium) (UniProt P09384)
[7] = molecular target: CheA M469C (single-cysteine mutant of cysteine-less CheA) (Salmonella typhimurium) (UniProt P09384)
[8] = molecular target: CheA Q10C (single-cysteine mutant of cysteine-less CheA) (Salmonella typhimurium) (UniProt P09384)
[9] = molecular target: CheA Q10C/D359C (dicysteine mutant of cysteine-less CheA) (Salmonella typhimurium) (UniProt P09384)
[10] = molecular target: CheA Q10C/E311C (dicysteine mutant of cysteine-less CheA) (Salmonella typhimurium) (UniProt P09384)
[11] = molecular target: CheA Q10C/E369C (dicysteine mutant of cysteine-less CheA) (Salmonella typhimurium) (UniProt P09384)
[12] = molecular target: CheA Q10C/E425C (dicysteine mutant of cysteine-less CheA) (Salmonella typhimurium) (UniProt P09384)
[13] = molecular target: CheA Q10C/E460C (dicysteine mutant of cysteine-less CheA) (Salmonella typhimurium) (UniProt P09384)
[14] = molecular target: CheA Q10C/M469C (dicysteine mutant of cysteine-less CheA) (Salmonella typhimurium) (UniProt P09384)
[15] = molecular target: CheA Q10C/Q454C (dicysteine mutant of cysteine-less CheA) (Salmonella typhimurium) (UniProt P09384)
[16] = molecular target: CheA Q10C/S351C (dicysteine mutant of cysteine-less CheA) (Salmonella typhimurium) (UniProt P09384)
[17] = molecular target: CheA Q10C/S514C (dicysteine mutant of cysteine-less CheA) (Salmonella typhimurium) (UniProt P09384)
[18] = molecular target: CheA Q125C (single-cysteine mutant of cysteine-less CheA) (Salmonella typhimurium) (UniProt P09384)
[19] = molecular target: CheA Q596C (single-cysteine mutant of cysteine-less CheA) (Salmonella typhimurium) (UniProt P09384)
[20] = molecular target: CheA R171C (single-cysteine mutant of cysteine-less CheA) (Salmonella typhimurium) (UniProt P09384)
[21] = molecular target: CheA R607C (single-cysteine mutant of cysteine-less CheA) (Salmonella typhimurium) (UniProt P09384)
[22] = molecular target: CheA S514C (single-cysteine mutant of cysteine-less CheA) (Salmonella typhimurium) (UniProt P09384)

Q: Which fraction (%) intradimer [1] does the source give for “CheA A37C (single-cysteine mutant of cysteine-less CheA) (from UniProt P09384 1-671) (enzyme)” here?
A: 46%

Q: How did the fraction (%) intradimer [2] turn out when “CheA A114C (single-cysteine mutant of cysteine-less CheA) (from UniProt P09384 1-671) (enzyme)” was run?
A: 84%

Q: With “CheA E109C (single-cysteine mutant of cysteine-less CheA) (from UniProt P09384 1-671) (enzyme)” as the substance, how does the fraction (%) intradimer [3] read?
A: 82%

Q: Which fraction (%) intradimer [4] does the source give for “CheA E311C (single-cysteine mutant of cysteine-less CheA) (from UniProt P09384 1-671) (enzyme)” here?
A: 93%

Q: “CheA G636C (single-cysteine mutant of cysteine-less CheA) (from UniProt P09384 1-671) (enzyme)” was tested. Which fraction (%) intradimer [5] did it give?
A: 83%

Q: “CheA L627C (single-cysteine mutant of cysteine-less CheA) (from UniProt P09384 1-671) (enzyme)” was tested. Which fraction (%) intradimer [6] did it give?
A: 100%

Q: With “CheA M469C (single-cysteine mutant of cysteine-less CheA) (from UniProt P09384 1-671) (enzyme)” as the substance, how does the fraction (%) intradimer [7] read?
A: 72%

Q: For “CheA Q10C (single-cysteine mutant of cysteine-less CheA) (from UniProt P09384 1-671) (enzyme)”, which fraction (%) intradimer [8] is on record?
A: 100%

Q: How did the fraction (%) intradimer [9] turn out when “CheA Q10C/D359C (dicysteine mutant of cysteine-less CheA) (from UniProt P09384 1-671) (enzyme)” was run?
A: 86%

Q: With “CheA Q10C/E311C (dicysteine mutant of cysteine-less CheA) (from UniProt P09384 1-671) (enzyme)” as the substance, how does the fraction (%) intradimer [10] read?
A: 87%

Q: With “CheA Q10C/E369C (dicysteine mutant of cysteine-less CheA) (from UniProt P09384 1-671) (enzyme)” as the substance, how does the fraction (%) intradimer [11] read?
A: 81%

Q: Which fraction (%) intradimer [12] does the source give for “CheA Q10C/E425C (dicysteine mutant of cysteine-less CheA) (from UniProt P09384 1-671) (enzyme)” here?
A: 100%

Q: With “CheA Q10C/E460C (dicysteine mutant of cysteine-less CheA) (from UniProt P09384 1-671) (enzyme)” as the substance, how does the fraction (%) intradimer [13] read?
A: 91%

Q: “CheA Q10C/M469C (dicysteine mutant of cysteine-less CheA) (from UniProt P09384 1-671) (enzyme)” was tested. Which fraction (%) intradimer [14] did it give?
A: 100%

Q: “CheA Q10C/Q454C (dicysteine mutant of cysteine-less CheA) (from UniProt P09384 1-671) (enzyme)” was tested. Which fraction (%) intradimer [15] did it give?
A: 100%

Q: For “CheA Q10C/S351C (dicysteine mutant of cysteine-less CheA) (from UniProt P09384 1-671) (enzyme)”, which fraction (%) intradimer [16] is on record?
A: 100%

Q: “CheA Q10C/S514C (dicysteine mutant of cysteine-less CheA) (from UniProt P09384 1-671) (enzyme)” was tested. Which fraction (%) intradimer [17] did it give?
A: 49%

Q: For “CheA Q125C (single-cysteine mutant of cysteine-less CheA) (from UniProt P09384 1-671) (enzyme)”, which fraction (%) intradimer [18] is on record?
A: 81%

Q: Which fraction (%) intradimer [19] does the source give for “CheA Q596C (single-cysteine mutant of cysteine-less CheA) (from UniProt P09384 1-671) (enzyme)” here?
A: 100%

Q: “CheA R171C (single-cysteine mutant of cysteine-less CheA) (from UniProt P09384 1-671) (enzyme)” was tested. Which fraction (%) intradimer [20] did it give?
A: 100%

Q: For “CheA R607C (single-cysteine mutant of cysteine-less CheA) (from UniProt P09384 1-671) (enzyme)”, which fraction (%) intradimer [21] is on record?
A: 100%

Q: Which fraction (%) intradimer [22] does the source give for “CheA S514C (single-cysteine mutant of cysteine-less CheA) (from UniProt P09384 1-671) (enzyme)” here?
A: 50%
